Measurements reported in patent US20230374088A1.

Molecular target: mNeonGreen-tagged full length Gli2 (human) (UniProt P10070)
Assay: cell-based or functional assay

amount of Gli2 in the nucleus as a percentage of total Gli expression (mNeonGreen intensity), HeLa cells: < 25%
Substance: mRuby-tagged Kif7-CC (460-600aa) with ER localization signal (from UniProt Q2M1P5 460-600)
